Test results from the supplement of paper PMC10567573.

B1: SPATS1 (parent)
chain: YPEQSKGFHKAGSMLPPVNFSIVP

Variants of: B1
Assay: protein stability index of a GFP-peptide fusion (GPS, HEK-293T) (PSI 1-6); higher = more stable
Settings: c terminus: a fixed tail appended
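Note: lentivirally expressed fusions sorted by FACS into six bins by GFP to DsRed ratio, PSI derived from sequencing read proportions per bin multiplied by bin number.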

Protein stability index: each site, then its substitutions
Q4: E 3.03 | V 2.43 | M 1.39 | N 1.89 | S 1.99 | L 1.81 | Y 2.56 | W 3.72 | R 1.79 | K 1.77 | I 1.85 | G 1.89 | F 3.4 | T 1.8 | D 2.71 | A 3.18 | P 2.16 | C 1.8 | H 2.29
F8: G 3.58 | N 3.83 | P 3.39 | V 2.86 | D 4.19 | Y 1.97 | E 3.69 | K 3.32 | S 3.57 | L 2.9 | C 2.78 | M 2.43 | Q 3.39 | T 3.18 | H 3.07 | W 3.05 | R 3.17 | A 3.6 | I 3.44
H9: Q 2.51 | A 2.1 | Y 2.21 | V 2.13 | W 3.39 | D 2.94 | T 2.16 | K 2.56 | L 1.66 | N 2.75 | F 4.31 | C 1.82 | G 2.13 | S 2.4 | P 2.19 | R 2.42 | M 2.14 | E 2.81 | I 2.38
K10: G 1.52 | A 1.85 | V 1.76 | E 2.58 | T 2.08 | F 1.57 | P 2 | R 2.47 | Q 1.9 | N 2 | D 2.54 | L 2.88 | W 3.61 | H 1.44 | C 3.44 | S 1.91 | I 1.7 | M 1.93
S5: N 1.99 | T 2.23 | Q 2.55 | I 2.2 | V 2.45 | A 2.17 | R 2.67 | P 2.15 | E 2.69 | W 2.18 | D 2.74 | H 2.1 | L 2.15 | Y 2.1 | K 2.49 | F 2.3 | G 2.52 | M 2.37 | C 1.96
P2: F 1.77 | Q 2.51 | L 2.29 | V 2.62 | M 2.48 | W 1.45 | Y 1.91 | H 2.04 | E 3.33 | R 2.57 | G 1.8 | I 1.83 | N 2.47 | S 2.43 | K 2.87 | T 1.77
K6: I 1.86 | H 1.71 | Q 1.71 | E 2.41 | W 1.9 | R 1.71 | G 2.09 | V 1.67 | A 1.92 | Y 1.93 | N 1.91 | C 2.38 | F 2.1 | L 1.75 | D 2.29 | P 2.17 | S 2.56 | T 1.92 | M 2.26
G7: Q 1.73 | M 2.2 | T 3.08 | R 2.92 | N 2.09 | F 2.12 | K 2.39 | E 1.63 | V 1.86 | S 1.9 | I 2.34 | C 1.94 | H 1.43 | L 2.24 | P 1.71 | Y 2.14 | W 1.7 | A 2.45 | D 2.86
E3: W 2.01 | D 2.24 | S 2 | N 2.39 | R 1.64 | Y 2.03 | P 2.09 | K 1.8 | Q 2.5 | T 2.02 | G 1.82 | A 1.78 | V 1.76 | C 2.35 | L 1.9 | F 2.11 | H 1.81 | M 2.14 | I 2.12
